Test results published in US20180044433A1 (FONDAZIONE IRCCS INSTITUTO NAZIONALE DEI TUMORI, published 2018).

Key:
[1] = target: T1, JMJD6 peptide 40 (human); assay: ELISA on plated peptides (1 ug/well)
T1 construct: also called pool G
T1 peptide: VVLNLDTTIAITQN
Protocol: (§1) A peptide library was synthesized (Primm), consisting of 57 peptides with 14 amino acids each and whose sequences overlap for 7 amino acids. In order to assay the interaction with collagen, the peptides, were sown in a plate (1 ug/well) and incubated for the whole night at 4° C. […] The reaction was developed and read at 450 nm as indicated above. As control two unrelated peptides were used and the reactivity of the antibodies on the peptides in absence of collagen was evaluated.

[2] = target: T2, JMJD6 peptide 16 (human); assay: ELISA on plated peptides (1 ug/well)
T2 construct: also called pool C
T2 peptide: DGYSVKMKMKYYIE
Protocol: as §1

[3] = target: T3, JMJD6 peptide 41 (human); assay: ELISA on plated peptides (1 ug/well)
T3 construct: also called pool G
T3 peptide: TIAITQNFASSTNF
Protocol: as §1

[4] = target: T4, JMJD6 peptide 45 (human); assay: ELISA on plated peptides (1 ug/well)
T4 construct: also called pool H
T4 peptide: SRKWYRILKQEHPE
Protocol: as §1

[5] = target: T5, JMJD6 peptide 29 (human); assay: ELISA on plated peptides (1 ug/well)
T5 construct: also called pool F
T5 peptide: NALVQGHKRWCLFP
Protocol: as §1

[6] = target: T6, JMJD6 peptide 43 (human); assay: ELISA on plated peptides (1 ug/well)
T6 construct: also called pool H
T6 peptide: PVVWHKTVRGRPKL
Protocol: as §1

[7] = target: T7, JMJD6 peptide 13 (human); assay: ELISA on plated peptides (1 ug/well)
T7 construct: also called pool B
T7 peptide: WTLERLKRKYRNQK
Protocol: as §1

[8] = target: T8, JMJD6 peptide 53 (human); assay: ELISA on plated peptides (1 ug/well)
T8 construct: also called pool I
T8 peptide: SEGDGTVHRRKKRR
Protocol: as §1

[9] = target: T9, JMJD6 peptide 21 (human); assay: ELISA on plated peptides (1 ug/well)
T9 construct: also called pool D
T9 peptide: PKRRKLLEDYKVPK
Protocol: as §1

[10] = target: T10, JMJD6 peptide 39 (human); assay: ELISA on plated peptides (1 ug/well)
T10 construct: also called pool G
T10 peptide: VPGGWWHVVLNLDT
Protocol: as §1

[11] = target: T11, JMJD6 peptide 38 (human); assay: ELISA on plated peptides (1 ug/well)
T11 construct: also called pool G
T11 peptide: KPGETVFVPGGWWH
Protocol: as §1

[12] = target: T12, JMJD6 peptide 2 (human); assay: ELISA on plated peptides (1 ug/well)
T12 construct: also called pool A
T12 peptide: RIREAKRSARPELK
Protocol: as §1

[13] = target: T13, JMJD6 peptide 1 (human); assay: ELISA on plated peptides (1 ug/well)
T13 construct: also called pool A
T13 peptide: MNHKSKKRIREAKR
Protocol: as §1

[14] = target: T14, JMJD6 peptide 30 (human); assay: ELISA on plated peptides (1 ug/well)
T14 construct: also called pool F
T14 peptide: KRWCLFPTSTPREL
Protocol: as §1

[15] = target: T15, JMJD6 peptide 24 (human); assay: ELISA on plated peptides (1 ug/well)
T15 construct: also called pool E
T15 peptide: QYAGEKRRPPYRWF
Protocol: as §1

[16] = target: T16, JMJD6 peptide 25 (human); assay: ELISA on plated peptides (1 ug/well)
T16 construct: also called pool E
T16 peptide: RPPYRWFVMGPPRS
Protocol: as §1

[17] = target: T17, JMJD6 peptide 14 (human); assay: ELISA on plated peptides (1 ug/well)
T17 construct: also called pool B
T17 peptide: RKYRNQKFKCGEDN
Protocol: as §1

[18] = target: T18, JMJD6 peptide 44 (human); assay: ELISA on plated peptides (1 ug/well)
T18 construct: also called pool H
T18 peptide: VRGRPKLSRKWYRI
Protocol: as §1

[19] = target: T19, JMJD6 peptide 17 (human); assay: ELISA on plated peptides (1 ug/well)
T19 construct: also called pool C
T19 peptide: KMKYYIEYMESTRD
Protocol: as §1

[20] = target: T20, JMJD6 peptide 20 (human); assay: ELISA on plated peptides (1 ug/well)
T20 construct: also called pool D
T20 peptide: DSSYGEHPKRRKLL
Protocol: as §1

[21] = target: T21, JMJD6 peptide 54 (human); assay: ELISA on plated peptides (1 ug/well)
T21 construct: also called pool I
T21 peptide: HRRKKRRTCSMVGN
Protocol: as §1

[22] = target: T22, JMJD6 5′/FLAG (amino acids 1-305 with C-terminal FLAG) (human, UniProt Q6NYC1 1-305); assay: immunofluorescence on transfected MeWo cells
T22 construct: range 1-305; Expressed in transfected MeWo cells and tested by immunofluorescence; also called JM 5′/FLAG

Measured: binding result

B1: monoclonal antibody P4E11 (antibody, V domains shown, not shown: a dimerising Fc or GST)
VH: QVQLKQSGPGLVQPSQSLSITCTVSGFSLSSYGVHWVRQSPGKGLEWLGVIWRSGNTDYNAVFMSRLSITKDDSKSQVFFKMNSLQADDTAIYYCAKNFRYDVGSWFAYWGQGTLVTVSA
VL: NIMMTQSPSSLAVSAGEKVTMNCKSSQSILYSSNHKNYLAWYQQKPGQSPKLLIYWASTRESGVPNRFTGSGSGTDFTLTISSVQSEDLAVYYCHQYLSSYTFGGGTKLEIKR
no binding: all assays above
